In US20180155451A1 (published 2018):

Biological target: T1, FcγRIa (human, UniProt P12314 16-292)
T1 construct: extracellular domain; also called FcgRI; CD64
Assay: SPR; vs GpH7-A5/GpH7-B3/GpL16-k0=100

T1 sequence (P12314 16-292): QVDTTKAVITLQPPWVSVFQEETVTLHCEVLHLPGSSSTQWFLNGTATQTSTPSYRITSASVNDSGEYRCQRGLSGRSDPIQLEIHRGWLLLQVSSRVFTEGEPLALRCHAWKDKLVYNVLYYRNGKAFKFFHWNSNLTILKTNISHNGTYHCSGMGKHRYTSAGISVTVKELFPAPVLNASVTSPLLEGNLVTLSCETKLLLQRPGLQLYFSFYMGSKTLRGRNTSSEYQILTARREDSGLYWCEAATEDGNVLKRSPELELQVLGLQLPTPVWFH

He/Con_1a	Binder
102 % of control	GpH7-A5/GpH7-B3 variant E333_08L/GpL16-k0 (antibody, human IgG1, kappa, heterodimerized; also called He Ab E333_08L) heavy 1: not shown heavy 2: not shown light: DIVMTQSPLSLPVTPGEPASISCQASESLVHSNRNTYLHWYLQKPGQSPQLLIYKVSNRFSGVPDRFSGSGSGTDFTLKISRVEAEDVGVYYCSQNTHVPPTFGQGTKVEIERTVAAPSVFIFPPSDEQLKSGTASVVCLLNNFYPREAKVQWKVDNALQSGNSQESVTEQDSKDSTYSLSSTLTLSKADYEKHKVYACEVTHQGLSSPVTKSFNRGEC
106 % of control	GpH7-A5/GpH7-B3 variant I336_02A/GpL16-k0 (antibody, human IgG1, kappa, heterodimerized; also called He Ab I336_02A) heavy 1: not shown heavy 2: not shown light: DIVMTQSPLSLPVTPGEPASISCQASESLVHSNRNTYLHWYLQKPGQSPQLLIYKVSNRFSGVPDRFSGSGSGTDFTLKISRVEAEDVGVYYCSQNTHVPPTFGQGTKVEIERTVAAPSVFIFPPSDEQLKSGTASVVCLLNNFYPREAKVQWKVDNALQSGNSQESVTEQDSKDSTYSLSSTLTLSKADYEKHKVYACEVTHQGLSSPVTKSFNRGEC
109 % of control	GpH7-A5/GpH7-B3 variant H268_02A/GpL16-k0 (antibody, human IgG1, kappa, heterodimerized; also called He Ab H268_02A) heavy 1: not shown heavy 2: not shown light: DIVMTQSPLSLPVTPGEPASISCQASESLVHSNRNTYLHWYLQKPGQSPQLLIYKVSNRFSGVPDRFSGSGSGTDFTLKISRVEAEDVGVYYCSQNTHVPPTFGQGTKVEIERTVAAPSVFIFPPSDEQLKSGTASVVCLLNNFYPREAKVQWKVDNALQSGNSQESVTEQDSKDSTYSLSSTLTLSKADYEKHKVYACEVTHQGLSSPVTKSFNRGEC
104 % of control	GpH7-A5/GpH7-B3 variant E333_09D/GpL16-k0 (antibody, human IgG1, kappa, heterodimerized; also called He Ab E333_09D) heavy 1: not shown heavy 2: not shown light: DIVMTQSPLSLPVTPGEPASISCQASESLVHSNRNTYLHWYLQKPGQSPQLLIYKVSNRFSGVPDRFSGSGSGTDFTLKISRVEAEDVGVYYCSQNTHVPPTFGQGTKVEIERTVAAPSVFIFPPSDEQLKSGTASVVCLLNNFYPREAKVQWKVDNALQSGNSQESVTEQDSKDSTYSLSSTLTLSKADYEKHKVYACEVTHQGLSSPVTKSFNRGEC
105 % of control	GpH7-A5/GpH7-B3 variant I336_03V/GpL16-k0 (antibody, human IgG1, kappa, heterodimerized; also called He Ab I336_03V) heavy 1: not shown heavy 2: not shown light: DIVMTQSPLSLPVTPGEPASISCQASESLVHSNRNTYLHWYLQKPGQSPQLLIYKVSNRFSGVPDRFSGSGSGTDFTLKISRVEAEDVGVYYCSQNTHVPPTFGQGTKVEIERTVAAPSVFIFPPSDEQLKSGTASVVCLLNNFYPREAKVQWKVDNALQSGNSQESVTEQDSKDSTYSLSSTLTLSKADYEKHKVYACEVTHQGLSSPVTKSFNRGEC
107 % of control	GpH7-A5/GpH7-B3 variant H268_20W/GpL16-k0 (antibody, human IgG1, kappa, heterodimerized; also called He Ab H268_20W) heavy 1: not shown heavy 2: not shown light: DIVMTQSPLSLPVTPGEPASISCQASESLVHSNRNTYLHWYLQKPGQSPQLLIYKVSNRFSGVPDRFSGSGSGTDFTLKISRVEAEDVGVYYCSQNTHVPPTFGQGTKVEIERTVAAPSVFIFPPSDEQLKSGTASVVCLLNNFYPREAKVQWKVDNALQSGNSQESVTEQDSKDSTYSLSSTLTLSKADYEKHKVYACEVTHQGLSSPVTKSFNRGEC
102 % of control	GpH7-A5/GpH7-B3 variant E333_14T/GpL16-k0 (antibody, human IgG1, kappa, heterodimerized; also called He Ab E333_14T) heavy 1: not shown heavy 2: not shown light: DIVMTQSPLSLPVTPGEPASISCQASESLVHSNRNTYLHWYLQKPGQSPQLLIYKVSNRFSGVPDRFSGSGSGTDFTLKISRVEAEDVGVYYCSQNTHVPPTFGQGTKVEIERTVAAPSVFIFPPSDEQLKSGTASVVCLLNNFYPREAKVQWKVDNALQSGNSQESVTEQDSKDSTYSLSSTLTLSKADYEKHKVYACEVTHQGLSSPVTKSFNRGEC
106 % of control	GpH7-A5/GpH7-B3 variant I336_04F/GpL16-k0 (antibody, human IgG1, kappa, heterodimerized; also called He Ab I336_04F) heavy 1: not shown heavy 2: not shown light: DIVMTQSPLSLPVTPGEPASISCQASESLVHSNRNTYLHWYLQKPGQSPQLLIYKVSNRFSGVPDRFSGSGSGTDFTLKISRVEAEDVGVYYCSQNTHVPPTFGQGTKVEIERTVAAPSVFIFPPSDEQLKSGTASVVCLLNNFYPREAKVQWKVDNALQSGNSQESVTEQDSKDSTYSLSSTLTLSKADYEKHKVYACEVTHQGLSSPVTKSFNRGEC
107 % of control	GpH7-A5/GpH7-B3 variant H268_08L/GpL16-k0 (antibody, human IgG1, kappa, heterodimerized; also called He Ab H268_08L) heavy 1: not shown heavy 2: not shown light: DIVMTQSPLSLPVTPGEPASISCQASESLVHSNRNTYLHWYLQKPGQSPQLLIYKVSNRFSGVPDRFSGSGSGTDFTLKISRVEAEDVGVYYCSQNTHVPPTFGQGTKVEIERTVAAPSVFIFPPSDEQLKSGTASVVCLLNNFYPREAKVQWKVDNALQSGNSQESVTEQDSKDSTYSLSSTLTLSKADYEKHKVYACEVTHQGLSSPVTKSFNRGEC
102 % of control	GpH7-A5/GpH7-B3 variant E333_12R/GpL16-k0 (antibody, human IgG1, kappa, heterodimerized; also called He Ab E333_12R) heavy 1: not shown heavy 2: not shown light: DIVMTQSPLSLPVTPGEPASISCQASESLVHSNRNTYLHWYLQKPGQSPQLLIYKVSNRFSGVPDRFSGSGSGTDFTLKISRVEAEDVGVYYCSQNTHVPPTFGQGTKVEIERTVAAPSVFIFPPSDEQLKSGTASVVCLLNNFYPREAKVQWKVDNALQSGNSQESVTEQDSKDSTYSLSSTLTLSKADYEKHKVYACEVTHQGLSSPVTKSFNRGEC
100 % of control	GpH7-A5/GpH7-B3 variant G236_02A/GpL16-k0 (antibody, human IgG1, kappa, heterodimerized; also called He Ab G236_02A) heavy 1: not shown heavy 2: not shown light: DIVMTQSPLSLPVTPGEPASISCQASESLVHSNRNTYLHWYLQKPGQSPQLLIYKVSNRFSGVPDRFSGSGSGTDFTLKISRVEAEDVGVYYCSQNTHVPPTFGQGTKVEIERTVAAPSVFIFPPSDEQLKSGTASVVCLLNNFYPREAKVQWKVDNALQSGNSQESVTEQDSKDSTYSLSSTLTLSKADYEKHKVYACEVTHQGLSSPVTKSFNRGEC
112 % of control	GpH7-A5/GpH7-B3 variant H268_14T/GpL16-k0 (antibody, human IgG1, kappa, heterodimerized; also called He Ab H268_14T) heavy 1: not shown heavy 2: not shown light: DIVMTQSPLSLPVTPGEPASISCQASESLVHSNRNTYLHWYLQKPGQSPQLLIYKVSNRFSGVPDRFSGSGSGTDFTLKISRVEAEDVGVYYCSQNTHVPPTFGQGTKVEIERTVAAPSVFIFPPSDEQLKSGTASVVCLLNNFYPREAKVQWKVDNALQSGNSQESVTEQDSKDSTYSLSSTLTLSKADYEKHKVYACEVTHQGLSSPVTKSFNRGEC
102 % of control	GpH7-A5/GpH7-B3 variant E333_11K/GpL16-k0 (antibody, human IgG1, kappa, heterodimerized; also called He Ab E333_11K) heavy 1: not shown heavy 2: not shown light: DIVMTQSPLSLPVTPGEPASISCQASESLVHSNRNTYLHWYLQKPGQSPQLLIYKVSNRFSGVPDRFSGSGSGTDFTLKISRVEAEDVGVYYCSQNTHVPPTFGQGTKVEIERTVAAPSVFIFPPSDEQLKSGTASVVCLLNNFYPREAKVQWKVDNALQSGNSQESVTEQDSKDSTYSLSSTLTLSKADYEKHKVYACEVTHQGLSSPVTKSFNRGEC
109 % of control	GpH7-A5/GpH7-B3 variant I336_01G/GpL16-k0 (antibody, human IgG1, kappa, heterodimerized; also called He Ab I336_01G) heavy 1: not shown heavy 2: not shown light: DIVMTQSPLSLPVTPGEPASISCQASESLVHSNRNTYLHWYLQKPGQSPQLLIYKVSNRFSGVPDRFSGSGSGTDFTLKISRVEAEDVGVYYCSQNTHVPPTFGQGTKVEIERTVAAPSVFIFPPSDEQLKSGTASVVCLLNNFYPREAKVQWKVDNALQSGNSQESVTEQDSKDSTYSLSSTLTLSKADYEKHKVYACEVTHQGLSSPVTKSFNRGEC
106 % of control	GpH7-A5/GpH7-B3 variant H268_12R/GpL16-k0 (antibody, human IgG1, kappa, heterodimerized; also called He Ab H268_12R) heavy 1: not shown heavy 2: not shown light: DIVMTQSPLSLPVTPGEPASISCQASESLVHSNRNTYLHWYLQKPGQSPQLLIYKVSNRFSGVPDRFSGSGSGTDFTLKISRVEAEDVGVYYCSQNTHVPPTFGQGTKVEIERTVAAPSVFIFPPSDEQLKSGTASVVCLLNNFYPREAKVQWKVDNALQSGNSQESVTEQDSKDSTYSLSSTLTLSKADYEKHKVYACEVTHQGLSSPVTKSFNRGEC
101 % of control	GpH7-A5/GpH7-B3 variant E333_15Y/GpL16-k0 (antibody, human IgG1, kappa, heterodimerized; also called He Ab E333_15Y) heavy 1: not shown heavy 2: not shown light: DIVMTQSPLSLPVTPGEPASISCQASESLVHSNRNTYLHWYLQKPGQSPQLLIYKVSNRFSGVPDRFSGSGSGTDFTLKISRVEAEDVGVYYCSQNTHVPPTFGQGTKVEIERTVAAPSVFIFPPSDEQLKSGTASVVCLLNNFYPREAKVQWKVDNALQSGNSQESVTEQDSKDSTYSLSSTLTLSKADYEKHKVYACEVTHQGLSSPVTKSFNRGEC
108 % of control	GpH7-A5/GpH7-B3 variant H268_07I/GpL16-k0 (antibody, human IgG1, kappa, heterodimerized; also called He Ab H268_07I) heavy 1: not shown heavy 2: not shown light: DIVMTQSPLSLPVTPGEPASISCQASESLVHSNRNTYLHWYLQKPGQSPQLLIYKVSNRFSGVPDRFSGSGSGTDFTLKISRVEAEDVGVYYCSQNTHVPPTFGQGTKVEIERTVAAPSVFIFPPSDEQLKSGTASVVCLLNNFYPREAKVQWKVDNALQSGNSQESVTEQDSKDSTYSLSSTLTLSKADYEKHKVYACEVTHQGLSSPVTKSFNRGEC
105 % of control	GpH7-A5/GpH7-B3 variant G236_20W/GpL16-k0 (antibody, human IgG1, kappa, heterodimerized; also called He Ab G236_20W; GpH7-A5/GpH7-B3-03-20W/GpL16-k0) heavy 1: not shown heavy 2: not shown light: DIVMTQSPLSLPVTPGEPASISCQASESLVHSNRNTYLHWYLQKPGQSPQLLIYKVSNRFSGVPDRFSGSGSGTDFTLKISRVEAEDVGVYYCSQNTHVPPTFGQGTKVEIERTVAAPSVFIFPPSDEQLKSGTASVVCLLNNFYPREAKVQWKVDNALQSGNSQESVTEQDSKDSTYSLSSTLTLSKADYEKHKVYACEVTHQGLSSPVTKSFNRGEC
109 % of control	GpH7-A5/GpH7-B3 variant H268_05P/GpL16-k0 (antibody, human IgG1, kappa, heterodimerized; also called He Ab H268_05P) heavy 1: not shown heavy 2: not shown light: DIVMTQSPLSLPVTPGEPASISCQASESLVHSNRNTYLHWYLQKPGQSPQLLIYKVSNRFSGVPDRFSGSGSGTDFTLKISRVEAEDVGVYYCSQNTHVPPTFGQGTKVEIERTVAAPSVFIFPPSDEQLKSGTASVVCLLNNFYPREAKVQWKVDNALQSGNSQESVTEQDSKDSTYSLSSTLTLSKADYEKHKVYACEVTHQGLSSPVTKSFNRGEC
101 % of control	GpH7-A5/GpH7-B3 variant E333_16H/GpL16-k0 (antibody, human IgG1, kappa, heterodimerized; also called He Ab E333_16H) heavy 1: not shown heavy 2: not shown light: DIVMTQSPLSLPVTPGEPASISCQASESLVHSNRNTYLHWYLQKPGQSPQLLIYKVSNRFSGVPDRFSGSGSGTDFTLKISRVEAEDVGVYYCSQNTHVPPTFGQGTKVEIERTVAAPSVFIFPPSDEQLKSGTASVVCLLNNFYPREAKVQWKVDNALQSGNSQESVTEQDSKDSTYSLSSTLTLSKADYEKHKVYACEVTHQGLSSPVTKSFNRGEC
103 % of control	GpH7-A5/GpH7-B3 variant E333_13S/GpL16-k0 (antibody, human IgG1, kappa, heterodimerized; also called He Ab E333_13S) heavy 1: not shown heavy 2: not shown light: DIVMTQSPLSLPVTPGEPASISCQASESLVHSNRNTYLHWYLQKPGQSPQLLIYKVSNRFSGVPDRFSGSGSGTDFTLKISRVEAEDVGVYYCSQNTHVPPTFGQGTKVEIERTVAAPSVFIFPPSDEQLKSGTASVVCLLNNFYPREAKVQWKVDNALQSGNSQESVTEQDSKDSTYSLSSTLTLSKADYEKHKVYACEVTHQGLSSPVTKSFNRGEC
100 % of control	GpH7-A5/GpH7-B3 variant I332_12R/GpL16-k0 (antibody, human IgG1, kappa, heterodimerized; also called He Ab I332_12R) heavy 1: not shown heavy 2: not shown light: DIVMTQSPLSLPVTPGEPASISCQASESLVHSNRNTYLHWYLQKPGQSPQLLIYKVSNRFSGVPDRFSGSGSGTDFTLKISRVEAEDVGVYYCSQNTHVPPTFGQGTKVEIERTVAAPSVFIFPPSDEQLKSGTASVVCLLNNFYPREAKVQWKVDNALQSGNSQESVTEQDSKDSTYSLSSTLTLSKADYEKHKVYACEVTHQGLSSPVTKSFNRGEC
